Measurements from publication PMC11417369, “DNA sequence and chromatin differentiate sequence-specific transcription factor binding in the human malaria parasite Plasmodium falciparum”.

T1: AP2-G D1 (Plasmodium falciparum, UniProt Q8I5I9 2123-2245)
T1 sequence: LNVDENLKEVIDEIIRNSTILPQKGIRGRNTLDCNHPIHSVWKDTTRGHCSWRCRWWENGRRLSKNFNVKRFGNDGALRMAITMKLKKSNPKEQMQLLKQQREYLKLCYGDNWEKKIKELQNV

B1: XGTACX_negctrl_site390 (dsDNA)
DNA 1: TTATGAATATTGATGTATAAAAAAATATATATGTTA
DNA 2: TAACATATATATTTTTTTATACATCAATATTCATAA
B2: XGTACX_negctrl_site606 (dsDNA)
DNA 1: TTTTTATATATATGTATAAATATTTTTTCTATTTAT
DNA 2: ATAAATAGAAAAAATATTTATACATATATATAAAAA
B3: XGTACX_negctrl_site205 (dsDNA)
DNA 1: AACAATATATTGATATTATTTTAAGTGATTATATAT
DNA 2: ATATATAATCACTTAAAATAATATCAATATATTGTT
B4: XGTACX_negctrl_site428 (dsDNA)
DNA 1: AACAAGAAAAAAAAAAAAAAAAAAAAAAAATATTTT
DNA 2: AAAATATTTTTTTTTTTTTTTTTTTTTTTTCTTGTT
B5: XGTACX_negctrl_site425 (dsDNA)
DNA 1: ATTTGTATATAATATATATAATTTTTTTTTTTTGTT
DNA 2: AACAAAAAAAAAAAATTATATATATTATATACAAAT
B6: XGTACX_negctrl_site397 (dsDNA)
DNA 1: TTTTTTTTCAATCTCTATATATTAAGGTTTATATTT
DNA 2: AAATATAAACCTTAATATATAGAGATTGAAAAAAAA
B7: XGTACX_negctrl_site68 (dsDNA)
DNA 1: AATATAGAAATAAATATATCACATTTGTGTTTAAAC
DNA 2: GTTTAAACACAAATGTGATATATTTATTTCTATATT
B8: XGTACX_negctrl_site44 (dsDNA)
DNA 1: AAATTAAAATAATAATTCTACAAATTAATTTATCAT
DNA 2: ATGATAAATTAATTTGTAGAATTATTATTTTAATTT
B9: XGTACX_negctrl_site431 (dsDNA)
DNA 1: TTATTAAAATATACATTTGAAAGTAATCTTATTTAA
DNA 2: TTAAATAAGATTACTTTCAAATGTATATTTTAATAA
B10: XGTACX_negctrl_site582 (dsDNA)
DNA 1: TATTAAAAGAAAAAAAAAAAAAAATTAATACATATA
DNA 2: TATATGTATTAATTTTTTTTTTTTTTTCTTTTAATA
B11: XGTACX_negctrl_site280 (dsDNA)
DNA 1: AATTAATATATAAATAATAAAAAAAAATATATAAAC
DNA 2: GTTTATATATTTTTTTTTATTATTTATATATTAATT
B12: XGTACX_negctrl_site342 (dsDNA)
DNA 1: ATGAACGGAAAAATATATATAAATATATATATCATG
DNA 2: CATGATATATATATTTATATATATTTTTCCGTTCAT
B13: XGTACX_negctrl_site414 (dsDNA)
DNA 1: TATCTTTTTATTTTTTATTTTTTTTTTATAATTTAC
DNA 2: GTAAATTATAAAAAAAAAATAAAAAATAAAAAGATA
B14: XGTACX_negctrl_site402 (dsDNA)
DNA 1: AAAAGAATAATAATTTATGTATATTAATTAAAGAAT
DNA 2: ATTCTTTAATTAATATACATAAATTATTATTCTTTT
B15: XGTACX_negctrl_site416 (dsDNA)
DNA 1: TATTTCAAAATAAAATAAAATATATATATATGTATA
DNA 2: TATACATATATATATATTTTATTTTATTTTGAAATA
B16: XGTACX_negctrl_site375 (dsDNA)
DNA 1: AAATAAAATATATACATATATATATTATTTAGTAAT
DNA 2: ATTACTAAATAATATATATATGTATATATTTTATTT
B17: XGTACX_negctrl_site100 (dsDNA)
DNA 1: TTTATATTATAATATAATAATGATCTTAATTTTTTT
DNA 2: AAAAAAATTAAGATCATTATTATATTATAATATAAA
B18: XGTACX_negctrl_site550 (dsDNA)
DNA 1: ACGTAATTAATTCATCAGATATAATTAATAATAATA
DNA 2: TATTATTATTAATTATATCTGATGAATTAATTACGT

Biological target: T1, AP2-G D1
Test: gcPBM; about 25 ug protein; PBS, 1% milk, 0.2 mg/ml BSA, salmon testes DNA, 0.03% Triton X-100
Settings: tags: N-terminal GST (pGEX-4T-1), kept; label: surface-attached array probe

Point of comparison: B11, binding signal 9.42 ln median PBM intensity, better of two orientations. Against it:
- B1 — higher, 9.46 ln median PBM intensity, better of two orientations
- B2 — higher, 9.44 ln median PBM intensity, better of two orientations
- B3 — lower, 9.41 ln median PBM intensity, better of two orientations
- B4 — lower, 9.36 ln median PBM intensity, better of two orientations
- B5 — higher, 9.44 ln median PBM intensity, better of two orientations
- B6 — lower, 9.41 ln median PBM intensity, better of two orientations
- B7 — higher, 9.45 ln median PBM intensity, better of two orientations
- B8 — the same, 9.42 ln median PBM intensity, better of two orientations
- B9 — the same, 9.42 ln median PBM intensity, better of two orientations
- B10 — lower, 9.38 ln median PBM intensity, better of two orientations
- B12 — higher, 9.47 ln median PBM intensity, better of two orientations
- B13 — the same, 9.42 ln median PBM intensity, better of two orientations
- B14 — lower, 9.4 ln median PBM intensity, better of two orientations
- B15 — lower, 9.38 ln median PBM intensity, better of two orientations
- B16 — lower, 9.35 ln median PBM intensity, better of two orientations
- B17 — lower, 9.34 ln median PBM intensity, better of two orientations
- B18 — lower, 9.41 ln median PBM intensity, better of two orientations
